T1: recombinant human PLVAP51-442 protein (extracellular domain, His tag removed by thrombin) (human, UniProt Q9BX97 51-442)
T1 construct: also called recombinant PLVAP protein; recombinant PLVAP
T1 sequence: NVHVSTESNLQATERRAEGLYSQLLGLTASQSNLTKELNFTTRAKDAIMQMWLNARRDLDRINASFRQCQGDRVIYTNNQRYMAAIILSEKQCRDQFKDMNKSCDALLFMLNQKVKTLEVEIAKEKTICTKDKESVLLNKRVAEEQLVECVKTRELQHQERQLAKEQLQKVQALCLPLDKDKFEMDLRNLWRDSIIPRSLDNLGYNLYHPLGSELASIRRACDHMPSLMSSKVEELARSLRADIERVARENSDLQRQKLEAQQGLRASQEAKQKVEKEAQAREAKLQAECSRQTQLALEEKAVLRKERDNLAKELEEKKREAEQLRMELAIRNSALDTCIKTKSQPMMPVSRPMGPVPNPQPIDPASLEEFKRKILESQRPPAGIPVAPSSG

T2: His-tagged human PLVAP51-292 (human, UniProt Q9BX97 51-292)
T2 construct: also called N-terminal portion of the extracellular domain; not shown: His tag and vector residues of pET-15b
T2 sequence: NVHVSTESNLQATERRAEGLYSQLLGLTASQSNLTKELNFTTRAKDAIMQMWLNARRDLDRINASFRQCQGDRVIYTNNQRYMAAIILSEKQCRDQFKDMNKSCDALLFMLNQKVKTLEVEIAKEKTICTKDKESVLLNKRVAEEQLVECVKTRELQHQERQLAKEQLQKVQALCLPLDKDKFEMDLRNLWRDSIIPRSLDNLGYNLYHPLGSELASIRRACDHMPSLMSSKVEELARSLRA

T3: His-tagged human CEACAM6 (human, UniProt P40199 35-320, limits assumed)
T3 construct: also called human CEACAM6 protein unrelated to PLVAP (lane 4); not shown: His tag
T3 sequence (looked up): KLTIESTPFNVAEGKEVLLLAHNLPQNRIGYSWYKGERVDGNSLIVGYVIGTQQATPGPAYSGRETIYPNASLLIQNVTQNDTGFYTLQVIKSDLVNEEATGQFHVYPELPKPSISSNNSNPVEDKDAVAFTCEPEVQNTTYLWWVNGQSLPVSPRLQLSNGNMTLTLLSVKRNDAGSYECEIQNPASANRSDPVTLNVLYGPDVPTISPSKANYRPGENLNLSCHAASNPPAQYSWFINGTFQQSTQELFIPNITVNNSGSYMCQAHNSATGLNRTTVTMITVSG

B1: KFCC-GY4 monoclonal antibody (murine, hybridoma ATCC PTA-9963) (antibody, mouse IgG1, V domains shown)
VH: EVQLQQSGAEFVRSGASVKLSCTASGFNIKDYYIHWVKQRPEQGLEWIGWIDPENGDIEYAPKFQGKATMTADTSSNTAYLQFSSLTSEDTAVYYCLYQEGSWGQGTTLTVSS
VL: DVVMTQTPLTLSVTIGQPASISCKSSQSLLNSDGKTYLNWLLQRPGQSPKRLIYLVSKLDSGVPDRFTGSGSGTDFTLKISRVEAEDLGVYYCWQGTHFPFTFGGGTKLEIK
notes: also called GY4 mAB; KFCC-GY4 mAb
B2: chimeric KFCC-GY4 antibody (CSR01) (antibody, human IgG4, V domains shown)
VH: EVQLQQSGAEFVRSGASVKLSCTASGFNIKDYYIHWVKQRPEQGLEWIGWIDPENGDIEYAPKFQGKATMTADTSSNTAYLQFSSLTSEDTAVYYCLYQEGSWGQGTTLTVSS
VL: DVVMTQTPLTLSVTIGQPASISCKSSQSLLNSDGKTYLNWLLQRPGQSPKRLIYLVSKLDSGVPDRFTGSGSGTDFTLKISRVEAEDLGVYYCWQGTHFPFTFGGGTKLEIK
notes: also called Chimeric GY4; chimeric IgG4-GY4
B3: humanized KFCC-GY4 antibody CSR01-VH5/VK2 (antibody, human IgG4, V domains shown)
VH: EVQLVQSGAEVKKPGASVKVSCTASGFNIKDYYIHWVRQAPGQGLEWIGWIDPENGDIEYAPKFQGRATITADTSTDTAYMELSSLRSEDTAVYYCLYQEGSWGQGTTVTVSS
VL: DVVMTQSPLSLPVTLGQPASISCKSSQSLLNSDGKTYLNWLQQRPGQSPRRLIYLVSKLDSGVPDRFTGSGSGTDFTLKISRVEAEDVGVYYCWQGTHFPFTFGGGTKVEIKR
notes: also called VH5/VK2 (GY4 variant); CSR01-VH5NK2
B4: humanized KFCC-GY4 antibody CSR01-VH5/VK3 (antibody, human IgG4, V domains shown)
VH: EVQLVQSGAEVKKPGASVKVSCTASGFNIKDYYIHWVRQAPGQGLEWIGWIDPENGDIEYAPKFQGRATITADTSTDTAYMELSSLRSEDTAVYYCLYQEGSWGQGTTVTVSS
VL: DVVMTQSPLSLPVTLGQPASISCKSSQSLLNSDGKTYLNWLQQRPGQSPRRLIYLVSKLDSGVPDRFSGSGSGTDFTLKISRVEAEDVGVYYCWQGTHFPFTFGGGTKVEIKR
notes: also called VH5/VK3 (GY4 variant); VH5/VK3 IgG4
B5: humanized KFCC-GY4 antibody CSR01-VH5/VK1 (antibody, human IgG4, V domains shown)
VH: EVQLVQSGAEVKKPGASVKVSCTASGFNIKDYYIHWVRQAPGQGLEWIGWIDPENGDIEYAPKFQGRATITADTSTDTAYMELSSLRSEDTAVYYCLYQEGSWGQGTTVTVSS
VL: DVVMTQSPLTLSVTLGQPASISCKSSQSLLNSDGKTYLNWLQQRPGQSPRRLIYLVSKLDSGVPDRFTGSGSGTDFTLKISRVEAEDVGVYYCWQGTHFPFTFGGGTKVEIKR
notes: also called VH5/VK1 (GY4 variant); CSR01-VH5NK1
B6: humanized KFCC-GY4 antibody CSR01-VH4/VK3 (antibody, human IgG4, V domains shown)
VH: EVQLVQSGAEVKKPGASVKVSCTASGFNIKDYYIHWVRQAPGQGLEWIGWIDPENGDIEYAPKFQGRATITADTSTDTAYMEFSSLRSEDTAVYYCLYQEGSWGQGTTVTVSS
VL: DVVMTQSPLSLPVTLGQPASISCKSSQSLLNSDGKTYLNWLQQRPGQSPRRLIYLVSKLDSGVPDRFSGSGSGTDFTLKISRVEAEDVGVYYCWQGTHFPFTFGGGTKVEIKR
notes: also called VH4/VK3 (GY4 variant); CSR01-VH4NK3
B7: humanized KFCC-GY4 antibody CSR01-VH4/VK2 (antibody, human IgG4, V domains shown)
VH: EVQLVQSGAEVKKPGASVKVSCTASGFNIKDYYIHWVRQAPGQGLEWIGWIDPENGDIEYAPKFQGRATITADTSTDTAYMEFSSLRSEDTAVYYCLYQEGSWGQGTTVTVSS
VL: DVVMTQSPLSLPVTLGQPASISCKSSQSLLNSDGKTYLNWLQQRPGQSPRRLIYLVSKLDSGVPDRFTGSGSGTDFTLKISRVEAEDVGVYYCWQGTHFPFTFGGGTKVEIKR
notes: also called VH4/VK2 (GY4 variant); CSR01-VH4NK2
B8: chimeric KFCC-GY5 antibody (CSR02) (antibody, human IgG4, V domains shown)
VH: QVQLQQPGAELVRPGASVKLSCKASGYTFTSNYINWVKQRPGQGLEWIGNIYPSDGFTNYNQKFKDRATLTVDKSSSTAYMQLSSPTSEDSAVYYCTRNFDVWGAGTTVTVSS
VL: DVVMTQTPLSLPVSLGDQASISCRSSQSLVHSNGNTYLQWYLQKPGQSPKLLIYTVSNRFSGVPDRFSGSGSGPDFTLKISRVEAEDLGVYFCSQSTHVPFTFGSGTKLEIK
notes: also called Chimeric GY5; chimeric IgG4-GY5
B9: humanized KFCC-GY5 antibody CSR02-VH4/VK2 (antibody, human IgG4, V domains shown)
VH: QVQLVQSGSELKKPGASVKVSCKASGYTFTSNYINWVRQAPGQGLEWIGNIYPSDGFTNYNQKFKDRVTITVDKSTSTAYMELSSLRSEDTAVYYCTRNFDVWGQGTTVTVSS
VL: DVVMTQSPLSLPVTLGQPASISCRSSQSLVHSNGNTYLQWYLQKPGQSPQLLIYTVSNRFSGVPDRFSGSGSGTDFTLKISRVEAEDVGVYFCSQSTHVPFTFGQGTKLEIKR
notes: also called VH4/VK2 (GY5 variant); CSR02-VH4NK2
B10: humanized KFCC-GY5 antibody CSR02-VH5/VK3 (antibody, human IgG4, V domains shown)
VH: QVQLVQSGSELKKPGASVKVSCKASGYTFTSNYINWVRQAPGQGLEWMGNIYPSDGFTNYNQKFKDRVTITVDKSTSTAYMELSSLRSEDTAVYYCTRNFDVWGQGTTVTVSS
VL: DVVMTQSPLSLPVTLGQPASISCRSSQSLVHSNGNTYLQWYLQKPGQSPQLLIYTVSNRFSGVPDRFSGSGSGPDFTLKISRVEAEDVGVYYCSQSTHVPFTFGQGTKLEIKR
notes: also called VH5/VK3 (GY5 variant); CSR02-VH5NK3
B11: humanized KFCC-GY5 antibody CSR02-VH4/VK3 (antibody, human IgG4, V domains shown)
VH: QVQLVQSGSELKKPGASVKVSCKASGYTFTSNYINWVRQAPGQGLEWIGNIYPSDGFTNYNQKFKDRVTITVDKSTSTAYMELSSLRSEDTAVYYCTRNFDVWGQGTTVTVSS
VL: DVVMTQSPLSLPVTLGQPASISCRSSQSLVHSNGNTYLQWYLQKPGQSPQLLIYTVSNRFSGVPDRFSGSGSGPDFTLKISRVEAEDVGVYYCSQSTHVPFTFGQGTKLEIKR
notes: also called VH4/VK3 (GY5 variant); VH4/VK3 IgG4
B12: humanized KFCC-GY5 antibody CSR02-VH5/VK2 (antibody, human IgG4, V domains shown)
VH: QVQLVQSGSELKKPGASVKVSCKASGYTFTSNYINWVRQAPGQGLEWMGNIYPSDGFTNYNQKFKDRVTITVDKSTSTAYMELSSLRSEDTAVYYCTRNFDVWGQGTTVTVSS
VL: DVVMTQSPLSLPVTLGQPASISCRSSQSLVHSNGNTYLQWYLQKPGQSPQLLIYTVSNRFSGVPDRFSGSGSGTDFTLKISRVEAEDVGVYFCSQSTHVPFTFGQGTKLEIKR
notes: also called VH5/VK2 (GY5 variant); CSR02-VH5NK2

Columns and labels:
[1] = molecular target: T1, recombinant human PLVAP51-442 protein …; experiment: Biacore T-100
[2] = molecular target: T1, recombinant human PLVAP51-442 protein …; experiment: ANTQ300 quartz crystal microbalance
[3] = molecular target: T1, recombinant human PLVAP51-442 protein …; experiment: competition ELISA on coated recombinant PLVAP; competitor biotinylated murine KFCC-GY4
Experimental: (§1) The binding of KFCC-GY4 and KFCC-GY5 human antibody variants to recombinant PLVAP was assessed in a competition ELISA. Either a dilution series of variant or control antibody from 30 μg/m to 0.014 μg/m (final concentration) was premixed with a constant concentration of biotinylated murine KFCC-GY4 (0.3 μg/ml, final concentration) or a dilution series of variant or control antibody from 10 μg/m to 0.004 μg/ml (final concentration) was premixed with a constant concentration of biotinylated murine KFCC-GY5 (0.1 μg/ml, final concentration) before incubating for 1 hour at room temperature on a Nunc Immuno MaxiSorp 96 well flat bottom microtitre plate (Fisher Catalogue No. DIS-971-030J) precoated with 1 μg/m recombinant “protein P” diluted in PBS. The binding of the biotinylated mAb was determined by detection with streptavidin-HRP and TMB substrate. After stopping the reaction with 3M HCl, absorbance was measured at 450 nm on a Dynex Technologies MRX TC II plate reader and the binding curves of the test antibodies compared against the mouse reference standard.
The five lead variants of IgG4-GY4 and murine KFCC-GY4 antibodies have very similar binding profiles (FIG. 48). All of the lead variants shown are within two-fold of the original murine monoclonal antibody.

[4] = molecular target: T2, His-tagged human PLVAP51-292; experiment: immunoblot of total protein extract of E. coli expressing the His-tagged protein
Text: (§2) Molecular weight protein standards are resolved in Lane M.

His-tagged human CEACAM6 = molecular target: T3, His-tagged human CEACAM6; experiment: as above
Text: as §2

[5] = molecular target: T1, recombinant human PLVAP51-442 protein …; experiment: competition ELISA on coated recombinant PLVAP; competitor biotinylated murine KFCC-GY4 at 0.3 µg/ml
Experimental: (§3) The binding of chimeric KFCC-GY4 and KFCC-GY5 antibodies to recombinant PLVAP protein was assessed in a competition ELISA. Either a dilution series of chimeric or control antibody from 30 μg/ml to 0.014 μg/m (final concentration) was premixed with a constant concentration of biotinylated murine KFCC-GY4 (0.3 μg/ml, final concentration) or a dilution series of chimeric or control antibody from 10 μg/ml to 0.004 μg/m (final concentration) was premixed with a constant concentration of biotinylated murine KFCC-GY5 (0.1 μg/ml, final concentration) before incubating for 1 hour at room temperature on a Nunc Immuno MaxiSorp 96 well flat bottom microtitre plate (Fisher Catalogue No. DIS-971-030J) precoated with 1 μg/ml recombinant PLVAP protein diluted in PBS. The binding of the biotinylated mAb was determined by detection with streptavidin-HRP and TMB substrate.
(§4) Therefore, the correct variable region sequences for the parent murine monoclonal antibodies were identified and cloned.

[6] = molecular target: T1, recombinant human PLVAP51-442 protein …; experiment: competition ELISA on coated recombinant PLVAP; competitor biotinylated murine KFCC-GY5 at 0.1 µg/ml
Experimental: as §3, §4

[7] = molecular target: T1, recombinant human PLVAP51-442 protein …; experiment: competition ELISA on coated recombinant PLVAP; competitor biotinylated murine KFCC-GY5
Experimental: as §1
Similarly, the four lead variants of IgG4-GY5 and murine KFCC-GY5 antibodies have very similar binding profiles (FIG. 49). All of the lead variants shown are within two-fold of the original murine monoclonal antibody.

Row | Binder | IC50 [3] | IC50 (ratio compared to GY4 mAb) [3] | IC50 [7] | IC50 (ratio compared to GY5 mAb) [7] | also measured
1 | B1 | 1.82 µg/mL | 1 |  |  | Kd [1]: 464 nM; koff [1]: 0.00701 s⁻¹; kon [1]: 15100 M⁻¹ s⁻¹; Kd [2]: 60 nM; binding result [4]: no binding; binding result (His-tagged human CEACAM6): no binding; IC50 [5]: 0.98 µg/mL
2 | B2 |  |  |  |  | Kd [1]: 406 nM; koff [1]: 0.00212 s⁻¹; kon [1]: 5210 M⁻¹ s⁻¹; IC50 [5]: 0.8 µg/mL
3 | B3 | 1.91 µg/mL | 1.05 |  |  | 
4 | B4 | 2.82 µg/mL | 1.55 |  |  | 
5 | B5 | 2.18 µg/mL | 1.2 |  |  | 
6 | B6 | 2.94 µg/mL | 1.61 |  |  | 
7 | B7 | 2.53 µg/mL | 1.39 |  |  | 
8 | B8 |  |  |  |  | Kd [1]: 0.978 nM; koff [1]: 3.01e-05 s⁻¹; kon [1]: 30700 M⁻¹ s⁻¹; IC50 [6]: 0.4 µg/mL
9 | B9 |  |  | 0.56 µg/mL | 1.47 | 
10 | B10 |  |  | 0.41 µg/mL | 1.08 | 
11 | B11 |  |  | 0.43 µg/mL | 1.13 | 
12 | B12 |  |  | 0.6 µg/mL | 1.58 | 

— patent publication US20150017171A1 (CHINA SYNTHETIC RUBBER, published 2015)
